The results in this text go back to the domain aggregation screens of Martell et al. (2025).
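Note: 20 min heating vs room temperature control held 20 min.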

A short description of this data set: soluble fraction after stress (log2 fold change); higher = more stays soluble; pooled small domains, quantitative proteomics. To be noted: stress: 75 degC.
As to “HMQLLDIGSAVRIIREPYFGRLGTVVELPPELMEIESGTHARVLKAKLDDGTVAVVPRANVEIIVE”, the “soluble fraction (log2)” value is -0.785. On to “HMQLNNTDELEKIILKILENNPKQVDQFLAGKQKLLGFFVGQAMRATSGKANPKTVNDLLEKFLSK”, for which the “soluble fraction (log2)” value turned out to be 0.027. As to “HMQLPDLDEIRQMRKRLDLSQRELAALAGVSQSLIAKIEKGSIDPSYDNVRKIFNAFENILKKRALE”, the “soluble fraction (log2)” value was -0.119. The figure for “HMQLPIGDVKLSVEHLSSGTALQDISFEVHRGEIFGFLGLVGAGRSETAETIFGLREKTDGKISIDGTVL” is -0.0579; for “HMQLPTNAAAILRYLSSGAVKGVGSATAVRIVEKFGEETLNILEQDPLRLAEIRGISRDKAKKIGEDFASQ” it is -0.322. As to “HMQLSMLPYGFARRHGVLLVEQDEQPTLIHRAGITATVIAEVQRVAGQIDAWRLVDDARFDQQLAEVYRD”, the “soluble fraction (log2)” value was -1.33. Take “HMQLTPAQHAILAYAIEHTGGKIEWFPDNIKGGARTKVLEGLFNKALITRDSTDWFVAAEGYDALGR”: the “soluble fraction (log2)” value is -0.949. Regarding “HMQLYSLEVLSKKKVDLIENNKNLINLYFNKENGEYSYRLIFKNRKELYQVKDTLDNSSDVVSIKLDL”, the “soluble fraction (log2)” value is -2.27. As for “HMQMGLNEAYRVLHVSPDAPWREVQSAYKERMAKSHPDKVSHLGEELQEKAKELTVEINKAYNTIKRYKK”, the “soluble fraction (log2)” value is 0.47. As to “HMQMKDRILRIMEHEGISPSKFAEEIGIQRSAMSHIISGRNNPSLDVLTKIMQRFTYVDTDWLLFGKGSMV”, the “soluble fraction (log2)” value was -1.99. Consider “HMQMPDLTGKPRAEAVTTLAALGFTDVKFLDASAGDEPLDYVADQVVRTSPEAGAALASGQQITIYLAT”, for which the “soluble fraction (log2)” value was -0.203. Regarding “HMQMSDTSMIRDLVLQVLAENPQSIEDFKNGKDRAVGFLVGMVMKKSQGKANPQITNQMIVEELKK”, the “soluble fraction (log2)” value was -0.228. Turning to “HMQMSERENTILLTKRYIERGEYERAMNLLDSLLIKNALDEEALAMIDEIIALKAGASLQDFPRY”, the “soluble fraction (log2)” value is -0.797.

Take “HMQMTTPQMVPLFTDLSVDDSASIIKDLERQAVPYQIKSDGAIIMVPKDKVTRLRMKLAESGLPK”: the “soluble fraction (log2)” value worked out at 0.488. For “HMQNDDLTKLDGIGPYIEQRLNDIGIYNYEQLSKLNTEDIQKITELIDFFPGRIERDNWVSQAQLLKI”, the “soluble fraction (log2)” value is -0.515.

For “HMQNDILIQADEIVGDYFDMDKEALKMNKQAVIADIEKRQATAQGDEASALHYAKQKVENEFEDDGSQKD”, the “soluble fraction (log2)” value amounted to 0.109. With “HMQNKFLDIVGEIEVKAVDYYLLKDTSGLVIKFPKNLVFANGLKIADNKIGLTVSLYGAWVHEET”, the “soluble fraction (log2)” value was -1.08. On to “HMQNKYIIKQGNSGELVEVLQELLNLKQDGVFGPQTKKAVIAFQQKHKLVADGIVGPMSWRKLNFNPEELF”, for which the “soluble fraction (log2)” value was -2.36. Turning to “HMQNLISSDEAKNIALQHANLTDNQVTFIKVSKDYDDGIHIYEVEFHYNNREYNYDINAINGTILSYEQ”, the “soluble fraction (log2)” value is -1.34. For “HMQNNKITIYISGAVNRPGIVTIESDKRLYDAVELLGGTTKEADLNGVNLSVRLEDEQHYIIPKIGEA”, the “soluble fraction (log2)” value was -0.432. “HMQNNWFYEENGQRKGPVSENEMVQFIKSSVISHGTSVWKQGFPDWLKVENTDLRVHLDNSAP”: the “soluble fraction (log2)” value amounted to 0.105. Consider “HMQNREQNILDGKSILDKELKRVGLLNQSAAIMAQEMKFNSQDDLFAALGSGATRIGQIINHLQKQS”, for which the “soluble fraction (log2)” value was -0.00272. For the sequence “HMQNSMTTTPDVVGKTGTFAEQMLKAANLNVQFAGDSSGKVVAQDVEAGTSAAYGTIITLTMDS”, the “soluble fraction (log2)” value turned out to be 0.693. Next, “HMQNVKIKAEVKGEVISPGVYELDEESRIQDLIDASGGFSDKAYYDNINLSMKLKDEMVLVVYDKDKI”: -0.271; “HMQPADYSDLYAAAKSAGEADMRAAFALTDKQERTAAVNAARETIKAALSEEQLADANLGSALKKLEAGV”: -0.122. “HMQPASPELNNQEKKVLQALPENEVIHIDELSDKIQIPVGELLTVLLSLEMKETVIQEPGKFFRRR”: the “soluble fraction (log2)” value is -1.29. With “HMQPDFLDAKASLALLGVRPQTLYAYVSRGAIRSVPQPGTKAHLYSRSDIERVMARAAARAG”, the “soluble fraction (log2)” value is -1.34. “HMQPDYRVLYSNFSDKDGGAIVAALEKMNVPYKFSEGGSAILVPAGQVHQARLKLAADGLPK”: the “soluble fraction (log2)” value was 0.0648. Take “HMQPLGHDLTERELDVLALMVTGMNNSEIADKLVVSRSTIKYHVSNILSKLQATSRTEAVAYALQQNLVH”: the “soluble fraction (log2)” value was -2.51. As to “HMQPQIDFEIDVEVRASSLRIVAAPNSDVLVATVGRGEHVVQLTYPKDGWVMIRTADDRVGFVPESLLL”, the “soluble fraction (log2)” value was -2.

Consider “HMQPQYSVLFSNIEEKDGGSIITLLQQGNVPYKVENGGTTILVPANRANELRLTLAAQGLPK”, for which the “soluble fraction (log2)” value turned out to be 0.449.

Regarding “HMQPVLSDAEVNDLKNIAGGERGYNQLMDWAGNNLTAQDAKSYDDVLATGNKAAISFAIKALMGQYEDAN”, the “soluble fraction (log2)” value is -0.0478. In the case of “HMQQEAVNLVQSRGQQAIEPVHIMQGVMKVGENVTNFIFQKLGMNGQQVALVVDKQIDSLPKVSGGEPYL”, the “soluble fraction (log2)” value is 0.124. “HMQQEAVSGKLLQLDLAKKEGRLSTDLGREVLFHIPKPELFVHLSVGQRIIIKLDAGQEAVGV”: the “soluble fraction (log2)” value is -0.178. “HMQQELDAFKLLITVSGVGPKAAMAVLSVLPPDRLSIAVSSGDVKSIQSAQGVGKKTAERIVLELKDKM”: the “soluble fraction (log2)” value is -0.906. Next, “HMQQIEIEEPITVKNLSAVAGLKASEIIAKLMKLGVMSTINQVMERQHAEEIAGEYGFELVVK”: -0.132; “HMQQISDPQVLRPMAEEVLHQSQKVVQDYKGGNKNAFHALVGQMMKKTQGKGNPQVIGQVLSELLDE”: 0.98. Consider “HMQQKNWIVRDGDGKIYGPFTTEQVLVQIDRGYFVGGEEVALYPGGRWIAISGAPEFYDRLLDALAMEG”, for which the “soluble fraction (log2)” value is -0.995. On to “HMQQQLLHIVFGGELKDVTGIEFEDLSKMDFVGAFSNYKDAYDAWKSAAQRTVDHAEMRYFILHAHKLL”, for which the “soluble fraction (log2)” value was -6.11. As for “HMQQRTVEHVDTAVEALALSIGERAGVDLPYMAHLTGKTQEDLIEDLTGVIFPVPGTEPLRYVTADDYLS”, the “soluble fraction (log2)” value is 0.181. As for “HMQQSVSSLVRRYMLQTIPGINFSLKSTALALNMSDRTLQRKLLSENTSYQIILDDVRKELAIKYLKE”, the “soluble fraction (log2)” value was -3.23. Turning to “HMQQVIQSGQKVQLMATDGSFQVSAEGVALKNGSVGEVIGVRMPSGRVISGVVSASGAVEVR”, the “soluble fraction (log2)” value worked out at 0.125. Turning to “HMQQVLGDVNEDDKVDFLDAIVVLRHDAEIIQLTDNQMKAAEVNKDGKVDFLDAIMILRYDAEIIGS”, the “soluble fraction (log2)” value was -0.0321. Next, “HMQRDDMQIDRLIQIVFLLLSRNNLTAKQLAEELGVSTRTIYRDINILSVAGIPITSQKGYGGGLSLLQG”: -0.608; “HMQRDELRYDQFLTALQNKEFTQLNVRFDDYTYLVTGTFQSGRPFSTRGPVSEEFIRLIESSGVQVTWLPM”: -1.65. Regarding “HMQRDERYVYHTVLAGETIYSLSRKFNVTMDELLESNPALRSGVLTTGSEIRVLKAQMAQNFD”, the “soluble fraction (log2)” value was -1.25.

Take “HMQRQGTVATQQTPLNIRSQPSLSAQVIGQAPKGATVAILGESGDWYQIRYQNITGYSSKQYI”: the “soluble fraction (log2)” value was determined as 0.0804. With “HMQRSVEDVFVQLRNGMDTYDMTQIEDALRILHGMELSTAQRDLLDKVQEAYNDLEYETGAALLAGFERIK”, the “soluble fraction (log2)” value is 0.134. For the sequence “HMQRYFINEPVPEDQRLVLPKDIAHHLVDVLRAEQNDELEVALNDQKVYLARLISLNPATVELQSDLG”, the “soluble fraction (log2)” value came to 0.465.

Turning to “HMQRYFLEEAYQPSEKFELSAEAFHHIVHVMRMKPKDRVYLAFSDQQVIIAEITEITEEKVYLTEIEKEE”, the “soluble fraction (log2)” value was -3.23.

For “HMQRYYDVLGLQKGVSPEELKKTYRELSKKYHPDAHHNSPLRDLAEAKFKEINEAYEKIKEFLDNNF”, the “soluble fraction (log2)” value was -0.207. Next, “HMQSAKLSYSDFMQKVNAGDVVSVKIQGPKISGVTTGGGKFMTYAPEDPTLVSTLMQKKVEVMAEP”: 0.139; “HMQSAMALTKDLIEQQGKYYHRGQPFTGVGFAKNKKGKFVTEEPFKNGLLHGKRVNYDHNGHVLAREK”: -0.105; “HMQSEESTHIGERMLNQALRAMHVEPSAVKEKQWEKLIRDYSVKNKQDILTDIGLGKRQSVMVAHQLLAI”: -0.165. On to “HMQSEISRIGRILKERRLQLGYTQEYAAEKAGISYSYYTKIERGQQLPSLEVAMVLSKTFSLSMDRWL”, for which the “soluble fraction (log2)” value is -4.78. As to “HMQSFIEELLPVVDNFERSLAVVDPSDEIKNFLKGYEMIYNQLMEVLKSQGVEVIKTEGEEFDPNFHQA”, the “soluble fraction (log2)” value is -0.121. “HMQSHIVPDVKSQHIAQAKALLESKQMKAVVIDSNFVKGLPAGIVLDQTPIGGARVKENRTIYLTINTL”: the “soluble fraction (log2)” value is -1.56. On to “HMQSMEIDENEIPSIDKLSEYIEYFKRIYNALFDDKQLAITNIDVLERHFANNFNTLRFKMDE”, for which the “soluble fraction (log2)” value was 0.169. Turning to “HMQSNDAGELEAVVKGIIDANPKVVADYLAGNQKVVSFFVGQAMKATKGKANPKMVSEILGKLL”, the “soluble fraction (log2)” value was -0.0975.

“HMQSQIAQLYNPLLGYVKKRINSREDAEDLTQDIFLKLSKSNKDGVDNLKSWLYTIAKNTITDYYRKKKII”: the “soluble fraction (log2)” value was -0.0844. Next, “HMQSREISYSDFVASVERGEVATVILDGENIRFKGGDNVEYVTVRPADTNVTDLLIENQVVVRAEK”: 0.231. For “HMQSTVSTHQKTLALDTAQSGIPVFPVSSTHKRPLTDHGYKDATADADAVRKIWQQFPSAFV”, the “soluble fraction (log2)” value came out at 0.28. Regarding “HMQSVKTQPLRDWLLAHFDKPYPDDEDKVRLAEASGMTRAQVGNWFINARVRTWRPMVLDLGEEIERESV”, the “soluble fraction (log2)” value is -0.325. “HMQTEFVISSGEQPKRLDVFLLQREPYLSRAALQRMIAAGWVRVNNHLAKSSQRIKAGDVIVFD”: the “soluble fraction (log2)” value is -1.42. Regarding “HMQTFGTMIAALRKEQGMTQLELAEKMGVTDKAVSKWERDLSFPDVNSLPKLAEIFHVSVDEL”, the “soluble fraction (log2)” value is -0.16. For “HMQTLGADLRALRKARGLTLTDMAETLGRSVGWLSQVERDLSEPSITDLRHMARTLGVSVSMLFS”, the “soluble fraction (log2)” value was -1.52.

For the sequence “HMQTLQNNLKQIRSRVGLTQGELASRAGISRQAYSTLESGNANPSTEVSLRLAEALNERIESLFFLANQ”, the “soluble fraction (log2)” value was -0.495. Turning to “HMQTSETVYTTDKVNVRAGADTSSDKLGSVEKGTSLTRTGTDGDWSIIDYNGTTGYIKSEYLSATAPE”, the “soluble fraction (log2)” value came to 0.566. As to “HMQTTKTGTITASSLYVRSGASTSHKVLGTVSKGKTVQIKDTQDGWHKISYNGDHGWVSGKYVSTT”, the “soluble fraction (log2)” value came out at 0.226.

As for “HMQTTVHLSPEEMVIMNALKQESPIDLPILRAQVEMSNKLWDTSMKNLSKLGQLKVEKIGEQVSVSLI”, the “soluble fraction (log2)” value was -0.582.
